Test results as given in US20110009319A1 (RESEARCH DEVELOPMENT FOUNDATION, published 2011).
Blank lines part the entries; values can stand above or below the binder they belong to.

What was measured:
[1] = molecular target: T1, activin-A (UniProt P08476 311-426, [125I] label in the crosslinking assays (site not stated)); test: activin crosslinking assays
T1 construct: The ~14 kDa monomer implies the processed mature chain; Unlabelled protein was used in the luciferase assays; also called bA-bA
T1 sequence (looked up): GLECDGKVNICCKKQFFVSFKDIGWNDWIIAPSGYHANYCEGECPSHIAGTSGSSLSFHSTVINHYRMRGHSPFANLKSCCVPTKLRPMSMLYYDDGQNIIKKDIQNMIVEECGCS
Experimental: Cells were transfected with […] DNA per well with ratios of 0.5 mg TbRII/0.5 mg ALK5/3 mg Cripto unless otherwise indicated for [¹²⁵I]-TGF-b1 crosslinking or […] ActRII/1 mg Cripto/1 mg vector for [¹²⁵I]activin-A crosslinking. As necessary, empty vector was used to keep the amount of DNA transfected constant at […]. […] Cells were then rinsed in HDB, incubated in HDB containing 0.5 mM disuccinylsuberate (DSS) for 30 min on ice, rinsed in HDB and then solubilized in lysis buffer (TBS containing 1% NP-40, 0.5% deoxycholate and 2 mM EDTA) for 1 h on ice. Solubilized, crosslinked complexes were incubated for approximately 24 h at 4° C. with […] of either anti-FLAG (M2), anti-His or anti-myc antibodies. Immune complexes were precipitated using protein-G agarose and analyzed using SDS-PAGE and autoradiography.

[2] = molecular target: T1, activin-A; test: not described at this place

binding result [1]: no binding
B1: Cripto DEGF mutant (receptor)
chain: FEFGPVAGRDLAIRDNSIWDQKEPAVRDRSFQFVPSVGIQNSKEHCGSILHGTWLPKKCSLCRCWHGQLHCLPQTFLPGCD
modifications: C-terminal GPI anchor

binding result [2]: no binding
B2: Cripto EGF1•2mCFC mutant (N69G, T72A, R88G, E91G, H104G, W107G) (receptor)
chain: FEFGPVAGRDLAIRDNSIWDQKEPAVRDRSFQFVPSVGIQNSKSLNKTCCLGGGACILGSFCACPPSFYGGNCGHDVRKEHCGSILGGTGLPKKCSLCRCWHGQLHCLPQTFLPGCD
modifications: C-terminal GPI anchor
